Values quoted from earlier work, collected in paper PMC4070439.

Tests used:
[1] = target: IL-12Rβ1 (low affinity site) (Mus musculus) (UniProt Q60837)
[2] = target: IL-12Rβ1 (high affinity site) (Mus musculus) (UniProt Q60837)

Q: Which Kd [1] does the source give for “IL-12 p40 homodimer (from UniProt P43432)” here?
A: Its Kd is 15 nM.

Q: What about the Kd [2] of the same substance?
A: Its Kd is 0.005 nM.
